Data published in US20150329644A1 (BRIGHAM AND WOMEN S HOSPITAL, published 2015).

Molecular target: T1, Human LSD2 (residues 51-822) with N-terminal extra residues GPGS, as used for co-crystallization (human, UniProt Q8NB78 51-822)
T1 construct: range 51-822; Construct of the LSD2-NPAC (PDB 4GUT) and LSD2-NPAC-H3K4M (PDB 4GUS, 4GUR) co-crystals; also called KDM1b; AOF1
T1 sequence: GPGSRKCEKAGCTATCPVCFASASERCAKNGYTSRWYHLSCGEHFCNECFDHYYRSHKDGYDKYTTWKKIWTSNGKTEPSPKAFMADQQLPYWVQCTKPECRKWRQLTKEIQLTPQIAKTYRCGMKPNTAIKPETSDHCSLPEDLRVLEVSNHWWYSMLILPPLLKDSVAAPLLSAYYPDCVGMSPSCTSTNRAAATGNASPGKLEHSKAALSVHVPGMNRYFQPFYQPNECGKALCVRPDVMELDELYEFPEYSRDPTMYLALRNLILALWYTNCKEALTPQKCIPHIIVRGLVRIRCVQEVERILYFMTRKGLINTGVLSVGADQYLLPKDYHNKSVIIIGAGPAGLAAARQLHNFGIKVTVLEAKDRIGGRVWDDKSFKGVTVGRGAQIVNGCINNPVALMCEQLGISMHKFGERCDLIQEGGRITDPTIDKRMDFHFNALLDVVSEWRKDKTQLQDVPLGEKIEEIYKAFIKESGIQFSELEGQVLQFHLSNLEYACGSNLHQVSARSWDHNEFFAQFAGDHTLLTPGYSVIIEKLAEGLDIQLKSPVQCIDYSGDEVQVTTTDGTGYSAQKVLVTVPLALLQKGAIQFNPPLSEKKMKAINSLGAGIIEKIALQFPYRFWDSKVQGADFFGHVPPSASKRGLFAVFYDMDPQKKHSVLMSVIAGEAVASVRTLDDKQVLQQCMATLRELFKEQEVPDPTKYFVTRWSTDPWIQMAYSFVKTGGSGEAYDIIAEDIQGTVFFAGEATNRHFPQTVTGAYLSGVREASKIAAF
Test: co-crystal structures of LSD2 with the NPAC linker region (residues 152-268)
Method: Crystallization and Data Collection. All crystals were grown using the hanging-drop vapor diffusion method. […] All crystals were examined on X8 Proteum system (Bruker AXS) and data sets were collected on beamline BL17U at Shanghai Synchrotron Radiation Facility (Shanghai, China).

B1: NPAC linker region (residues 152-268), as used for co-crystallization (other)
chain: SERGSKSPLKRAQEQSPRKRGRPPKDEKDLTIPESSTVKGMMAGPMAAFKWQPTASEPVKDADPHFHHFLLSQTEKPAVCYQAITKKLKICEEETGSTSIQAADSTAVNGSITPTDK
notes: Expressed with His6 and GST tags that were removed by 3C protease
  binding result: binds
